Experimental data taken from US20180339057A1 (Novo Nordisk, published 2018).
Residue numbers refer to the chain shown, from its start. Names may count otherwise. Blank lines part the entries; values can stand above or below the binder they belong to.

How the values were obtained:
[1] = target: T1, human MIC-1 receptor (hGFRAL, GDNF family receptor alpha like), full length (human, UniProt Q6UXV0 19-394); assay: cell-based or functional assay
T1 sequence (looked up): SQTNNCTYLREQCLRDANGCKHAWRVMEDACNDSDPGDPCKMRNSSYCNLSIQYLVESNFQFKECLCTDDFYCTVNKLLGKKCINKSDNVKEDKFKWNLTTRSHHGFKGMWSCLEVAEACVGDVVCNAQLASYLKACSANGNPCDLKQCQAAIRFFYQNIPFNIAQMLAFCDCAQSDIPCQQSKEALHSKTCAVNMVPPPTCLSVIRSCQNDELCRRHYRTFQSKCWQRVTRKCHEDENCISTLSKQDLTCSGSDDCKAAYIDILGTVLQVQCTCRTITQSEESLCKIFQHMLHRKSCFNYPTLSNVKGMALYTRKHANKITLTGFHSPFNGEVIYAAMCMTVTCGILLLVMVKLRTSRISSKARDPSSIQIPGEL

[2] = target: T1, human MIC-1 receptor (hGFRAL, GDNF …); assay: cell-based or functional assay; remark: listed apart in the source
[3] = target: T1, human MIC-1 receptor (hGFRAL, GDNF …); assay: SPA: displacement of 50 pM human [125I]-MIC-1 from BHK21-hGFRAL-IRES-hRET cell membranes
Protocol: Binding potencies of MIC-1 compounds were calculated by IC50 of displacement curves.
BHK21-hGFRAL-IRES-hRET cells were cultured at +37° C. in a humidified atmosphere with 5% CO₂ in complete medium consisting of DMEM with high glucose and sodium pyrovate, heat inactivated 10% Fetal Bovine Serum, 1% Penicillin-Streptomycin, 1 mg/ml G418-Geneticin and 400 ug/ml Hygromycin. Cells were washed twice in ice cold Dulbecco's phosphate-buffered saline (DPBS) and detached mechanically by scraping, transferred in ice cold DPBS into conical centrifuge tubes and centrifuged for 5 min at 1500 rpm at +20° C. Cell pellet was resuspended in a total amount of 10 ml ice cold homogenization buffer A (50 mM Tris, 2.5 mM EDTA, adjust pH7.4 with one EDTA-free protease inhibitor cocktail tablet/50 ml) and homogenized for 20 seconds. The homogenate was centrifuged at 16000 rpm in 20 minutes at +4° C. The supernatant was discarded and the pellet was reconstituted in 10 ml homogenization buffer B (50 mM Tris, 320 mM Sucrose, adjust pH 7.4 with one EDTA-free protease inhibitor cocktail tablet/50 ml) and homogenized for 20 seconds and centrifuged at 16000 rpm in 20 minutes at +4° C. This procedure was repeated one more time. The supernatant was discarded and the pellet was reconstituted in 3 ml homogenization buffer B and homogenized for 10 seconds at low speed. Protein concentration was determined by standard Bradford method and 1.5 mg protein/tube was aliquoted to cryotubes and stored at −80° C. Binding assays were performed in white 96-well plates in a total volume of 200 μl per well. Wheat germ agglutinin SPA beads were reconstituted in assay buffer (50 mM Tris/HCl, 4.5 mM MgCl₂, 0.02% Tween 20 and 0.25% Ovalbumin pH 7.4) and mixed with membrane preparation to give a final concentration of 0.5 mg SPA beads and 10 μg total protein per well. […] The plate was sealed and incubated at +22° C. for 2 hours in a plate shaker set at 350 rpm and thereafter centrifuged at 1500 rpm for 10 minutes prior to reading of SPA bead light emission.

- Emax (%) [1]: 100%
- pERK EC50 (nM) [1]: 0.3 nM
B1: MIC-1(R2A,N3E,A81E) (ligand)
chain: AAEGDHCPLGPGRCCRLHTVRASLEDLGWADWVLSPREVQVTMCIGACPSQFRAANMHAQIKTSLHRLKPDTVPAPCCVPESYNPMVLIQKTDTGVSLQTYDDLLAKDCHCI

- Emax (%) [1]: 100%
- pERK EC50 (nM) [1]: 0.8 nM
B2: A(GPEQGQEP)3-MIC-1-Δ1-3 (ligand)
chain: AGPEQGQEPGPEQGQEPGPEQGQEPGDHCPLGPGRCCRLHTVRASLEDLGWADWVLSPREVQVTMCIGACPSQFRAANMHAQIKTSLHRLKPDTVPAPCCVPASYNPMVLIQKTDTGVSLQTYDDLLAKDCHCI

- Emax (%) [1]: 100%
- pERK EC50 (nM) [1]: 0.7 nM
B3: …-MIC-1-Δ1-3 (ligand)
chain: SEPATSGSETPGTSTEPSEGSAPGGDHCPLGPGRCCRLHTVRASLEDLGWADWVLSPREVQVTMCIGACPSQFRAANMHAQIKTSLHRLKPDTVPAPCCVPASYNPMVLIQKTDTGVSLQTYDDLLAKDCHCI

- Emax (%) [1]: 100%
- pERK EC50 (nM) [1]: 0.6 nM
B4: (SEPATSGSETPG)2-MIC-1-Δ1-3(M57L) (ligand)
chain: B3 chain with T13S, S14E, T15P, E16A, P17T, E19G, G20S, S21E, A22T, M78L

- Emax (%) [1]: 100%
- pERK EC50 (nM) [1]: 0.4 nM
B5: (SEPATSGSETPG)2-MIC-1-Δ1-3 (ligand)
chain: B3 chain with T13S, S14E, T15P, E16A, P17T, E19G, G20S, S21E, A22T

- Emax (%) [1]: 60%
- pERK EC50 (nM) [1]: 0.6 nM
B6: (SEPATSGSETPG)2-MIC-1-Δ1-3(M57E) (ligand)
chain: B3 chain with T13S, S14E, T15P, E16A, P17T, E19G, G20S, S21E, A22T, M78E

- Emax (%) [1]: 100%
- pERK EC50 (nM) [1]: 0.4 nM
B7: (SEPATSGSETPG)2-MIC-1-Δ1-3(M86L) (ligand)
chain: B3 chain with T13S, S14E, T15P, E16A, P17T, E19G, G20S, S21E, A22T, M107L

- Emax (%) [1]: 100%
- pERK EC50 (nM) [1]: 0.4 nM
B8: (SEPATSGSETPG)2-MIC-1-Δ1-3(M57L, M86L) (ligand)
chain: SEPATSGSETPGSEPATSGSETPGGDHCPLGPGRCCRLHTVRASLEDLGWADWVLSPREVQVTMCIGACPSQFRAANLHAQIKTSLHRLKPDTVPAPCCVPASYNPLVLIQKTDTGVSLQTYDDLLAKDCHCI

- Luciferase + 0.1% HSA NNDK EC50 (pM) [2]: 64 pM
- Luciferase NNDK EC50 (pM) [2]: 85 pM
- IC50 [3]: 119 nM
B9: SEPATSGSETPGTSESATPESGPGTSTEPSEG-MIC-1-des-N3 (M57L, M86L) (ligand)
chain: SEPATSGSETPGTSESATPESGPGTSTEPSEGARGDHCPLGPGRCCRLHTVRASLEDLGWADWVLSPREVQVTMCIGACPSQFRAANLHAQIKTSLHRLKPDTVPAPCCVPASYNPLVLIQKTDTGVSLQTYDDLLAKDCHCI
notes: homodimer; no protractor

- Luciferase + 0.1% HSA NNDK EC50 (pM) [2]: 106 pM
- Luciferase NNDK EC50 (pM) [2]: 96 pM
- IC50 [3]: 11 nM
B10: Compound 03 (ligand)
chain: B9 chain with S6C, L88M, L117M
modifications: Cys-27 (residue 6 of SEQ ID NO: 291): S{Beta}-[2-[2-[[2-[2-[2-[[2-[2-[2-[[(4S)-4-carboxy-4-(15-carboxypentadecanoylamino)butanoyl]amino]ethoxy]ethoxy]acetyl]amino]ethoxy]ethoxy]acetyl]amino]ethylamino]-2-oxoethyl]Cys (protractor of Example 10.2)
notes: homodimer, two protractors per dimer

- Luciferase + 0.1% HSA NNDK EC50 (pM) [2]: 58 pM
- Luciferase NNDK EC50 (pM) [2]: 90 pM
- IC50 [3]: 17 nM
B11: Compound 04 (ligand)
chain: B9 chain with S6C, L88M, L117M
modifications: Cys-27 (residue 6 of SEQ ID NO: 291): S{Beta}-[2-[2-[[2-[2-[2-[[2-[2-[2-[[(4S)-4-carboxy-4-(13-carboxytridecanoylamino)butanoyl]amino]ethoxy]ethoxy]acetyl]amino]ethoxy]ethoxy]acetyl]amino]ethylamino]-2-oxoethyl]Cys (protractor of Example 10.3)
notes: as for B10

- Luciferase + 0.1% HSA NNDK EC50 (pM) [2]: 59 pM
- Luciferase NNDK EC50 (pM) [2]: 72 pM
- IC50 [3]: 3.8 nM
B12: Compound 01 (ligand)
chain: B9 chain with A4C, L88M, L117M
modifications: Cys-29 (residue 4 of SEQ ID NO: 288): S{Beta}-[2-[2-[[2-[2-[2-[[2-[2-[2-[[(4S)-4-carboxy-4-(17-carboxyheptadecanoylamino)butanoyl]amino]ethoxy]ethoxy]acetyl]amino]ethoxy]ethoxy]acetyl]amino]ethylamino]-2-oxoethyl]Cys (protractor of Example 10.4)
notes: as for B10

- Luciferase + 0.1% HSA NNDK EC50 (pM) [2]: 77 pM
- Luciferase NNDK EC50 (pM) [2]: 49 pM
- IC50 [3]: 6.5 nM
B13: Compound 20 (ligand)
chain: B9 chain with A4C, L88M, L117M
modifications: Cys-29 (residue 4 of SEQ ID NO: 288): S{Beta}-[2-[[(1S)-1-carboxy-5-[[2-[2-[2-[[2-[2-[2-[[(4S)-4-carboxy-4-[12-(4-carboxyphenoxy)dodecanoylamino]butanoyl]amino]ethoxy]ethoxy]acetyl]amino]ethoxy]ethoxy]acetyl]amino]pentyl]amino]-2-oxoethyl]Cys (protractor of Example 10.9)
notes: as for B10

- Luciferase + 0.1% HSA NNDK EC50 (pM) [2]: 107 pM
- Luciferase NNDK EC50 (pM) [2]: 123 pM
- IC50 [3]: 4.9 nM
B14: Compound 02 (ligand)
chain: B9 chain with S6C, L88M, L117M
modifications: Cys-27 (residue 6 of SEQ ID NO: 291): S{Beta}-[2-[2-[[2-[2-[2-[[2-[2-[2-[[(4S)-4-carboxy-4-(17-carboxyheptadecanoylamino)butanoyl]amino]ethoxy]ethoxy]acetyl]amino]ethoxy]ethoxy]acetyl]amino]ethylamino]-2-oxoethyl]Cys
notes: as for B10
